Reference: the supplement of paper PMC9732359
± gives the uncertainty stated by the source.

Test: protein stability index of a GFP-peptide fusion (yeast GPS) (PSI 1-4); higher = more stable; sorted into four equal gates, so the index is relative within each strain
Method in brief: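 Each library plasmid carries Cherry plus GFP with a tiled 17-residue yeast protein peptide fused downstream, and the pooled library was carried in yeast. Mid-log cultures in leucine-free medium were sorted into four equal gates by GFP/Cherry ratio. Reads from Illumina sequencing of PCR-amplified plasmids from each gate were assigned to strains by barcodes. Per peptide, the protein stability index was computed as the summed products of gate read frequency and gate number.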

| Sequence | protein stability index (doa10∆) | protein stability index (pdr5∆) | protein stability index (san1∆) | protein stability index (ubr1∆) |
| --- | --- | --- | --- | --- |
| DKFFNEVNKSELYLTAE [SIR3] | 3.43 ± 0.13 | 3.55 ± 0.13 | 3.23 ± 0.085 | 3.58 ± 0.12 |
| RDEIAKNTELSYDFLPL [RPN12] | 1.54 ± 0.062 | 2.23 ± 0.072 | 1.82 ± 0.079 | 2.32 ± 0.05 |
| PKDTSAATMTSAPPPAL [RGR1] | 2.49 ± 0.1 | 2.59 ± 0.1 | 2.51 ± 0.069 | 2.85 ± 0.097 |
| FMTKLLEVANDLQLLYV [IRR1] | 1.72 ± 0.11 | 1.98 ± 0.075 | 2.23 ± 0.12 | 1.24 ± 0.045 |
| EYEELKEKIEKLSKSAT [SMC1] | 3.33 ± 0.12 | 3.09 ± 0.22 | 2.98 ± 0.079 | 3.08 ± 0.073 |
| LITSSARKELPIFDYIH [SIR3] | 2.16 ± 0.056 | 2.06 ± 0.061 | 1.92 ± 0.068 | 2.48 ± 0.048 |
| VDTSTELESMLEDLKNT [RRP6] | 3.56 ± 0.24 | 3.03 ± 0.14 | 3.46 ± 0.11 | 3.13 ± 0.054 |
| NIDSSAQFTFGKAATAK [YOR098C/NUP1] | 3.12 ± 0.099 | 3.07 ± 0.14 | 3.22 ± 0.13 | 3.1 ± 0.072 |
| SGTPTLKKNIEPKKDKE [YOR098C/NUP1] | 3.39 ± 0.19 | 3.29 ± 0.11 | 2.71 ± 0.25 | 3.05 ± 0.084 |
| KLKYHDFLRKATAFNKT [RPL16A] | 1.16 ± 0.13 | 1.24 ± 0.14 | – | 1.22 ± 0.15 |
| SAEEQLRKIDMLQKKLV [SRB7] | 2.64 ± 0.09 | 2.58 ± 0.065 | 1.88 ± 0.097 | 2.62 ± 0.043 |
| TVNEPQMSDKHATVVPP [SRB7] | 2.73 ± 0.12 | 2.83 ± 0.11 | 2.89 ± 0.093 | 3.07 ± 0.092 |
| SGELLQGIVRVYSKQAT [MCD1] | 1.82 ± 0.047 | 2.17 ± 0.056 | 2.22 ± 0.058 | 1.76 ± 0.049 |
| DKDSEELDSKTRKILEI [MED4] | 2.98 ± 0.093 | 2.65 ± 0.091 | 3.11 ± 0.061 | 2.98 ± 0.064 |
| PNNSRDDYKDLTCSLYE [IRR1] | 3.11 ± 0.069 | 2.88 ± 0.069 | 3.18 ± 0.052 | 3.24 ± 0.087 |
| DANGVSLFELIVPIFQL [YJL039C/NUP192] | 2.37 ± 0.053 | 2.08 ± 0.049 | 2.25 ± 0.062 | 2.14 ± 0.032 |
| TKENLEVSGENVVEADL [QCR2] | 3.33 ± 0.27 | 3.6 ± 0.09 | 3.52 ± 0.1 | 2.8 ± 0.14 |
| GFQDRSLPHFPKNSKTP [RPO31] | 2.7 ± 0.14 | 1.96 ± 0.1 | 1.56 ± 0.11 | – |
| RDHKSYSQSPPRSPGRS [SMC4] | 2.59 ± 0.092 | 2.98 ± 0.081 | 3.01 ± 0.17 | 2.87 ± 0.052 |
| LAMNDDDFLSKKRKAGR [SNF2] | 3.41 ± 0.11 | 3.58 ± 0.084 | 3.16 ± 0.1 | 3.52 ± 0.091 |
| LMRQALAIKDSKKRFAA [RPO21] | 1.83 ± 0.062 | 2.12 ± 0.055 | 1.98 ± 0.072 | 1.53 ± 0.049 |
| EQPCVDIISGKIHSILP [YJR042W/NUP85] | 3.02 ± 0.067 | 3.07 ± 0.1 | 3 ± 0.064 | 3 ± 0.053 |
| SEHFLYLAKELNLTGPK [RPN1] | 2.98 ± 0.13 | 2.81 ± 0.15 | 2.35 ± 0.19 | 2.98 ± 0.29 |
| KSLLLNTLNIDNTARVI [BRN1] | 2.71 ± 0.057 | 2.48 ± 0.052 | 2.47 ± 0.066 | 2.42 ± 0.034 |
| RLRQFNLQPISTPENVP [SMC4] | 1.69 ± 0.081 | 1.76 ± 0.067 | 1.61 ± 0.14 | 1.73 ± 0.052 |
| PFVLAENMWPFSYQEVE [CDC53] | 1.6 ± 0.037 | 1.9 ± 0.04 | 1.56 ± 0.051 | 2.25 ± 0.028 |

| Sequence | protein stability index (doa10∆) | protein stability index (pdr5∆) | protein stability index (san1∆) | protein stability index (ubr1∆) |
| --- | --- | --- | --- | --- |
| MKYLAAYLLLNAAGNTP [RPP2A] | 1.88 ± 0.031 | 2.05 ± 0.033 | 1.9 ± 0.05 | 2.32 ± 0.036 |
| PKKEYDDDAVRREVQIQ [NSL1] | 1.4 ± 0.18 | 2.11 ± 0.25 | 1.36 ± 0.29 | 2.38 ± 0.21 |
| CDEHMGLSLAGLAPDAR [PRE5] | 2.79 ± 0.18 | 3.08 ± 0.15 | 2.56 ± 0.12 | 2.76 ± 0.093 |
| EASKKSAVKPRPLKLER [FAS1] | 3.1 ± 0.15 | 3.16 ± 0.13 | 2.88 ± 0.17 | 3.05 ± 0.11 |
| SLTDVAFFTYDAGVTFN [ECM29] | 2.66 ± 0.065 | 2.34 ± 0.057 | 2.82 ± 0.063 | 2.6 ± 0.068 |
| QLRKEIQLLDENVGTRL [MED11] | – | 3.09 ± 0.19 | 3.57 ± 0.11 | – |
| FTPQEIEYCSAQPSVQS [FAS2] | 2.88 ± 0.27 | – | – | – |
| IEPFECVEISHISKIIG [RPN6] | 2.47 ± 0.14 | – | 1.94 ± 0.3 | – |
| IPPPMPKNQQYRAFGSI [MED7] | 2.04 ± 0.083 | 2.31 ± 0.093 | 2.42 ± 0.1 | 2.04 ± 0.071 |
| QKMAELEAARSEKQNDE [PRP8] | 1.75 ± 0.11 | 1.76 ± 0.085 | 2.23 ± 0.26 | 1.8 ± 0.09 |
| PGSRASSRFIKGGSLYG [RPN2] | 2.19 ± 0.12 | 1.92 ± 0.11 | 1.45 ± 0.11 | 2.14 ± 0.069 |
| IQKESTLHLVLRLRGGG [RPS31] | 2.64 ± 0.12 | 2.31 ± 0.067 | 1.75 ± 0.096 | 2.45 ± 0.066 |
| DPLLAGLGETSGDNHTQ [RPT4] | 2.77 ± 0.26 | 3.43 ± 0.21 | 3.5 ± 0.19 | 3.25 ± 0.16 |
| PHLIIQNHNSKSTDNSA [IRR1] | 2.71 ± 0.047 | 2.88 ± 0.057 | 2.81 ± 0.05 | 2.78 ± 0.034 |
| KPELRKKVMPAIVVRQA [RPL23A] | 2.83 ± 0.14 | 2.87 ± 0.086 | 2.61 ± 0.16 | 2.97 ± 0.063 |
| NAAVAGVANTDTAGEES [SWI3] | 3.06 ± 0.061 | 3.27 ± 0.062 | 3 ± 0.046 | 3.15 ± 0.056 |
| GKRIAYVYRASKEVRGS [RPL33A] | 2.8 ± 0.063 | 2.57 ± 0.08 | 2.43 ± 0.064 | 2.73 ± 0.047 |
| DMVKLDINPPLVFILAV [RRP42] | 2.69 ± 0.068 | 2.3 ± 0.043 | 2.2 ± 0.07 | 2.19 ± 0.035 |
| SVGLPSKVASSLVIIIL [ECM29] | 2.21 ± 0.048 | 1.8 ± 0.041 | 2.28 ± 0.064 | 2.21 ± 0.061 |
| KEVSSFLMGIFNSVVNL [MTR3] | 2.83 ± 0.057 | 2.91 ± 0.049 | 2.88 ± 0.056 | 3 ± 0.043 |
| QNRPYNHPELQGITRNV [RPC17] | 2.06 ± 0.046 | 2.38 ± 0.078 | 2.03 ± 0.087 | 2.17 ± 0.049 |
| IPYAAKLLFQELMAMNI [RPB2] | 1.64 ± 0.13 | 1.66 ± 0.098 | 1.64 ± 0.29 | 1.55 ± 0.055 |
| AVYETLISRMIFIATQL [BRR2] | 1.96 ± 0.072 | 1.55 ± 0.058 | 1.29 ± 0.096 | 1.62 ± 0.041 |
| TDLHLPKKEYDDDAVRR [NSL1] | 1.99 ± 0.13 | 2.25 ± 0.12 | 1.42 ± 0.24 | 3.13 ± 0.11 |
| SRGNGGKKVLNKNQLLK [POP1] | 1.86 ± 0.14 | 2.54 ± 0.11 | 2.53 ± 0.14 | 3.43 ± 0.11 |
| GVNGYIWLRKTSQMDLA [RRP4] | 3.07 ± 0.077 | 2.74 ± 0.068 | 3.07 ± 0.097 | 2.9 ± 0.098 |
